# Assay results reported in patent publication US20100204147A1, “Methods For Delivering Thymosin Beta 4, Analogues, Isoforms and Other Derivatives” (REGENERX BIOPHARMACEUTICALS, INC., priority 2003, published 2010).
# Molecular target: T1, Aα392-610 sub-fragment (Homo sapiens, UniProt P02671)
# T1 construct: (residues Aα221-391 and Aα392-610, respectively); made in house; host or cells: E. coli, pET20b expression vector
# T1 sequence (P02671 411-629): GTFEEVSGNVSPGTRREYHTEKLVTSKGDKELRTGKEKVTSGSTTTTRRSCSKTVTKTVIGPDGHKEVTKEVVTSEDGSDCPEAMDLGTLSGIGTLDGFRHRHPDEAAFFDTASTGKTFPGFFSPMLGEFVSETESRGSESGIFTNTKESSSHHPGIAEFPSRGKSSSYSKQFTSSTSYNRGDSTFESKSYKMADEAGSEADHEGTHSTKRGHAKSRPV
# Assay: ELISA and kinetic analysis of incorporation into immobilized Aα392-610 sub-fragment
# Type: biochemical
# Protocol: The interaction between thymosin β4 and fibrin(ogen) and its fragments in the presence or absence of FXIIIa was studies by ELISA using plastic microliter plates. Wells of microliter plates were coated overnight at […] with fibrinogen and fibrin at 10 μg/mL or with the recombinant fragments of 20 μg/ml, all in 0.1 M NaHCO3 buffer, pH 8.3. Fibrin was made by addition to the wells of a mixture containing 10 μg/mL fibrinogen 1 NIH u/ml thrombin and 400 u/ml aprotinin, followed by overnight incubation at +4° C. The wells were then blocked by incubation with Super Blocker (Pierce) at 37° C. for 1 h. Following washing with TBS containing 0.05% Tween-20 (TBS-Tween), the indicated concentrations of thymosin β4, FXIII, FXIIIa(Thr) and FXIIIa(Ca) were added to the wells and incubated for 2-2.5 h at 37° C. Bound (incorporated) thymosin β4 was detected by the reaction with rabbit anti-thymosin β4 serum and peroxidase-conjugated anti-rabbit IgG. A TMB Microwell Peroxidase Substrase was added to the wells, and the incorporated thymosin β4 was measured spectrophotometrically at 450 nm.
# To analyze kinetics of the incorporation of thymosin β4 into different fibrin(ogen) fragments, they were immobilized onto the wells of microliter plates (as described above, except that the concentration of all fragments was 20 μg/mL) and incubated with several concentrations of thymosin β4 in the presence of 10 μg/L thrombin-activated factor XIIIa. The incubation mixtures were inhibited every 15 min during 1 hour of incubation by the addition of iodacetamide to final concentration 10 mM. Incorporated thymosin β4 at each time point was detected with rabbit anti-thymosin β4 serum as described above. The initial rates of the reaction of incorporation (V) at different concentrations of thymosin β4 were determined from the slopes of the reaction time course plots and expressed as tangent α=A450/t (min), where A450 represents absorbance at 450 nm in optical units (o.u) which is proportional to the amount of incorporated thymosin β4. […]
substance,measurement,setting,value
thymosin β4,non-covalent interaction with Aα392-610 sub-fragment (ELISA),non-activated factor XIII or without it,no significant non-covalent interaction
same,incorporation into immobilized Aα392-610 sub-fragment (ELISA),presence of factor XIIIa,incorporated effectively
same,Km,"thrombin-activated factor XIIIa, Lineweaver-Burk plot, read-out: apparent Michaelis constant (Km) for incorporation into the Aα392-610 sub-fragment",8.6 ± 3.7 µM
